The target in one assay is T1, TRAPPC11 (human, UniProt Q7Z392 1-1133, limits assumed).
T1 sequence (looked up): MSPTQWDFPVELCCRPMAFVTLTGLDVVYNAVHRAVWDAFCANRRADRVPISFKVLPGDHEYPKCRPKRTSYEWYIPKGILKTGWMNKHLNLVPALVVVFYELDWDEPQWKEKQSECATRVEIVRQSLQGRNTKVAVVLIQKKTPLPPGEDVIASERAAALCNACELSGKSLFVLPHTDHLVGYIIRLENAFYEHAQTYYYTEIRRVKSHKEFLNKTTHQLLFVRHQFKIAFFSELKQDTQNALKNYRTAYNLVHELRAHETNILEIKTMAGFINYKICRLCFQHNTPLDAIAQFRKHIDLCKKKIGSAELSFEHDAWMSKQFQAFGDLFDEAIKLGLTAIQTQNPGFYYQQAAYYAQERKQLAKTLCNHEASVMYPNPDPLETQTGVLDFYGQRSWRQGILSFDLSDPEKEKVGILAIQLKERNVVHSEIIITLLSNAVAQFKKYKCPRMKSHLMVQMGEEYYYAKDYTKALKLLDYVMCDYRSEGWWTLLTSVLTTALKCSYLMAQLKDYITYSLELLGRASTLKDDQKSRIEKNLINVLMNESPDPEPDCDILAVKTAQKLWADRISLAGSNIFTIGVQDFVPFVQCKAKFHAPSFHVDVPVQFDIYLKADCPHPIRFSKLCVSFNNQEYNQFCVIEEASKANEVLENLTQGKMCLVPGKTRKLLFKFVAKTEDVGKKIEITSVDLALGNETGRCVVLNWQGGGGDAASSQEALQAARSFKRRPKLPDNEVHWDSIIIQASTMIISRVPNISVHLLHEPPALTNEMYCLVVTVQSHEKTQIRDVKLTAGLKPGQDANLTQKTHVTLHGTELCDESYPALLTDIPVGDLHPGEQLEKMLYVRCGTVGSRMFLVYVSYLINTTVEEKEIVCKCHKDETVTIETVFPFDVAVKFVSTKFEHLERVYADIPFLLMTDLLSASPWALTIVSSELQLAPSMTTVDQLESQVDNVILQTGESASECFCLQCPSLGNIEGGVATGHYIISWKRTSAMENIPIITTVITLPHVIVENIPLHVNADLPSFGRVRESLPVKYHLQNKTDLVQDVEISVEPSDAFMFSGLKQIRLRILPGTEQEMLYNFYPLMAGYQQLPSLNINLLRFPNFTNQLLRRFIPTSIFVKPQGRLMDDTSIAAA
Kind of assay: IP/MS, LZTR1 R810W-FLAG, U87. A digest of the protocol:
(§1)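 Read-out: spectral counts from LC-MS/MS (Orbitrap Fusion) after MaxQuant identification. Variable modifications were Met oxidation, protein N-terminal acetylation and N/Q deamidation.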

In another assay the target is T2, SEC24D (human, UniProt O94855 1-1032, limits assumed).
T2 sequence (looked up): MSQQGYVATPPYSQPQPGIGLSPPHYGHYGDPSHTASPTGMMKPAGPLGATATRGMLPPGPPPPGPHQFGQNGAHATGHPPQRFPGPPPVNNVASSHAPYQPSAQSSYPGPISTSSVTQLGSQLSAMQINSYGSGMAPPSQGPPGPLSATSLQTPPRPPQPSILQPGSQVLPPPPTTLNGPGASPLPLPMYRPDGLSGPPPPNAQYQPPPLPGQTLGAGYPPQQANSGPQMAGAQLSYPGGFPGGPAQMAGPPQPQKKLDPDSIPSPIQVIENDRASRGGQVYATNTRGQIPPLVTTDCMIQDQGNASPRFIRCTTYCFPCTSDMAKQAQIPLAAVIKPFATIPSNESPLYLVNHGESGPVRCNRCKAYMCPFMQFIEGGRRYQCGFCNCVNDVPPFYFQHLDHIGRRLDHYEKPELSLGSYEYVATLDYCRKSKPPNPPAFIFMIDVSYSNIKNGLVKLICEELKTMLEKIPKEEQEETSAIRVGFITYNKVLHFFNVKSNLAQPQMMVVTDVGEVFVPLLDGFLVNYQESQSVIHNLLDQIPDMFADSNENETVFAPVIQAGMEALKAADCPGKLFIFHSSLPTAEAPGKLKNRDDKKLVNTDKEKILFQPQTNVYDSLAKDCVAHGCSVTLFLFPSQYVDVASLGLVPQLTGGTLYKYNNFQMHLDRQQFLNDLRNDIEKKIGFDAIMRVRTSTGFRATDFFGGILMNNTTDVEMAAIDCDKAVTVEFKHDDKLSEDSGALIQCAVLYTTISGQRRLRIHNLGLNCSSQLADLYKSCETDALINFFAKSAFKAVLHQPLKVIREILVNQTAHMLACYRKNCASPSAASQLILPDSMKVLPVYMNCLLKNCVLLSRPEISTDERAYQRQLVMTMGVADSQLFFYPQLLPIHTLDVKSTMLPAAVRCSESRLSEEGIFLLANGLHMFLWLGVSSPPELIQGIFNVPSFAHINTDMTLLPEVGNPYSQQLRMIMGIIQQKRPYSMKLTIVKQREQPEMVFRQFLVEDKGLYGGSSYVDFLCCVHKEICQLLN
Briefly: IP/MS, LZTR1 R810W-FLAG, U87. A digest of the protocol:
as §1

Results on one molecule are retold here after patent publication US20250262210A1 (TRUSTEES OF COLUMBIA UNIVERSITY IN THE CITY OF NEW YORK, published 2025).

B1: LZTR1 R810W-FLAG (other, human, UniProt Q8N653 1-840, looked up)
chain: MAGPGSTGGQIGAAALAGGARSKVAPSVDFDHSCSDSVEYLTLNFGPFETVHRWRRLPPCDEFVGARRSKHTVVAYKDAIYVFGGDNGKTMLNDLLRFDVKDCSWCRAFTTGTPPAPRYHHSAVVYGSSMFVFGGYTGDIYSNSNLKNKNDLFEYKFATGQWTEWKIEGRLPVARSAHGATVYSDKLWIFAGYDGNARLNDMWTIGLQDRELTCWEEVAQSGEIPPSCCNFPVAVCRDKMFVFSGQSGAKITNNLFQFEFKDKTWTRIPTEHLLRGSPPPPQRRYGHTMVAFDRHLYVFGGAADNTLPNELHCYDVDFQTWEVVQPSSDSEVGGAEVPERACASEEVPTLTYEERVGFKKSRDVFGLDFGTTSAKQPTQPASELPSGRLFHAAAVISDAMYIFGGTVDNNIRSGEMYRFQFSCYPKCTLHEDYGRLWESRQFCDVEFVLGEKEECVQGHVAIVTARSRWLRRKITQARERLAQKLEQEAAPVPREAPGVAAGGARPPLLHVAIREAEARPFEVLMQFLYTDKIKYPRKGHVEDVLLIMDVYKLALSFQLCRLEQLCRQYIEASVDLQNVLVVCESAARLQLSQLKEHCLNFVVKESHFNQVIMMKEFERLSSPLIVEIVRRKQQPPPRTPLDQPVDIGTSLIQDMKAYLEGAGAEFCDITLLLDGHPRPAHKAILAARSSYFEAMFRSFMPEDGQVNISIGEMVPSRQAFESMLRYIYYGEVNMPPEDSLYLFAAPYYYGFYNNRLQAYCKQNLEMNVTVQNVLQILEAADKTQALDMKRHCLHIIVHQFTKVSKLPTLWSLSQQLLLDIIDSLASHISDKQCAELGADI
notes: Stably expressed in U87 cells by lentivirus; also called LZTR1-FLAG-R810W; LZTR1 RW; not shown: FLAG tag
As for B1, the binding result with TRAPPC11 and with SEC24D was “binds” throughout.
